Laboratory results: patent US20110014200A1

Legend:
[1] = molecular target: wild-type human thyrotropin receptor (TSHR) (human) (UniProt P16473); assay: inhibition of 125I-TSH binding to monolayers of cells expressing human TSHR
[2] = molecular target: gain-of-function TSHR mutant A623I (human) (UniProt P16473); assay: cell-based or functional assay
[3] = molecular target: gain-of-function TSHR mutant I568T (human) (UniProt P16473); assay: cell-based or functional assay
[4] = molecular target: gain-of-function TSHR mutant I486F (human) (UniProt P16473); assay: cell-based or functional assay
[5] = molecular target: wild-type human thyrotropin receptor (TSHR) (human) (UniProt P16473); assay: cell-based or functional assay
[6] = molecular target: gain-of-function TSHR mutant S281I (human) (UniProt P16473); assay: cell-based or functional assay

percent suppression of TSH binding at 10 µg/ml [1]: 35%
CS-17 concentration producing half-maximal inhibition (IC50) of constitutive cAMP [2]: 1 µg/mL
CS-17 concentration producing half-maximal inhibition (IC50) of constitutive cAMP [3]: 1 µg/mL
CS-17 concentration producing half-maximal inhibition (IC50) of constitutive cAMP [4]: 1 µg/mL
CS-17 concentration producing half-maximal inhibition (IC50) of constitutive cAMP [5]: 1 µg/mL
half maximal inhibitory concentration for TSHR constitutive activity (intracellular cAMP) [5]: 6.7 nM
inverse agonist activity at 10 µg/ml (percent) [5]: 60 to 90%
reduction of constitutive activity at 10 µg/ml (percent) [5]: > 60%
CS-17 concentration producing half-maximal inhibition (IC50) of constitutive cAMP [6]: 1 µg/mL
Substance: monoclonal antibody CS-17 (produced by hybridoma CS-17, ATCC accession number PTA-8174)
